Article PMC3605678

Target: ERK5ΔC385–399 (human) (UniProt Q13164)
Assay: fluorescence polarisation

Chain of MKK5 PB1-D construct (16–130), unlabeled (Q13163 16-130): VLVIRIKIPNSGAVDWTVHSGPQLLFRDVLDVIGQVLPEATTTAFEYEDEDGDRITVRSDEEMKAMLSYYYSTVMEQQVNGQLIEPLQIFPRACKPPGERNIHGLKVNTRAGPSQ

- fold reduction of binding affinity against the wild-type pair: 20 fold
Substance: MKK5 PB1-D construct (16–130), unlabeled (from UniProt Q13163 16-130) (domain or fragment)
